# Assay results from the supplement of paper PMC9732359.
# ± gives the uncertainty stated by the source.
# Test: protein stability index of a GFP-peptide fusion (yeast GPS) (PSI 1-4); higher = more stable; sorted into four equal gates, so the index is relative within each strain
# Settings: pdr5∆
# Summary of the method: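 Yeast carrying a pooled library were grown to mid-log phase in leucine-free medium. Each library plasmid expresses Cherry and has a tiled 17-residue yeast protein peptide fused downstream of GFP. Cells were sorted into four equal gates by GFP/Cherry ratio, and plasmids from each gate were PCR-amplified, Illumina-sequenced and assigned to strains by barcode. Summing, across gates, the read frequency times the gate number gave each peptide's protein stability index.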
row,Sequence,protein stability index
1,AGIKTRKFVFNPPKPRK [CYT1],3.19 ± 0.074

# Same assay, conditions: san1∆
row,Sequence,protein stability index
1,AAAYSHELPRYGITHGL [RPL5],2.98 ± 0.052
2,AAGANVDNVWADVYAKA [RPP1B],2.77 ± 0.14
3,AAKIIYLAHEDNKEKDF [PRE10],3.25 ± 0.11
4,AALGEVASMELKPTNDM [SIR2],3.52 ± 0.067
5,AALIASKVYYNLGEYES [RPN2],1.33 ± 0.067
6,AAPPSTNFEILNEMLNT [DIS3],2.95 ± 0.075
7,AAPSAADIKAVVESVGA [RPP2B],3.05 ± 0.094
8,AASAAGYDRHITIFSPE [SCL1],2.87 ± 0.064
9,ACSSSGRETILSNFNAD [SIR3],2.44 ± 0.045
10,ADCQAELTKTKSSLYSA [YIL149C/MLP2],2.46 ± 0.069
11,ADEDDEDAKYVINLKQI [RPT1],1.8 ± 0.2
12,ADESKMAKLNECPLDPG [RET1],2.85 ± 0.082
13,ADINKNFLSVITNKHQE [RPN2],1.84 ± 0.087
14,ADKKDDSESNSEPIDLI [ITC1],3.02 ± 0.12
15,ADNKEDVKKPFSFGTSQ [YLR335W/NUP2],2.75 ± 0.16
16,ADNSGARNLYIIAVKGS [RPL23A],1.33 ± 0.11
17,ADNTKDKEKEENNDDAL [MED4],2.98 ± 0.078
18,ADVFRRCLVAVIQQDKY [SRP72],1.86 ± 0.1
19,ADVSIKSILQEIRRSLS [POP5],2.44 ± 0.14
20,ADVTHFVKPGTALDAEG [DIS3],3.04 ± 0.076
21,AEDVALNEQVKKFFLNN [NAS6],2.11 ± 0.067
22,AEEAAAEEEEESDDDMG [RPP0],3.23 ± 0.056

row,Sequence,protein stability index
1,AEEAIVNAMRVLYYRDA [PRE4],2.73 ± 0.2
2,AEEFDFNVPVVSKQLGN [YAR002W/NUP60],1.28 ± 0.14
3,AEEIGVEHLLRDVRDQA [RPN8],2.96 ± 0.15
4,AEFKKENLADLDYQIGN [LIN1],3.24 ± 0.057
5,AEKKVVRLTSRQRGRIA [RPL17A],1.45 ± 0.19
6,AELDDCRGVSENVILGQ [RPO21],3.24 ± 0.07
7,AELKLAGEFGLKNKKEI [RPS9A],3.2 ± 0.18
8,AETDYVDPKRLAMVIIK [DSN1],3.03 ± 0.056
9,AETQGSKVVIDSIIDNI [IRR1],3.08 ± 0.12
10,AFGVSVAFLDNDLGKFI [RPN7],3.07 ± 0.081
11,AFHTAVLRLNAIPLLKV [NUT1],2.35 ± 0.07
12,AFNQVEIRPEMLGHYLG [RPS15],3.44 ± 0.12
13,AFQLADGIHYILNHIGQ [PRP8],2.71 ± 0.24
14,AFTCFCIKKIMENNEPA [SRB8],2.38 ± 0.09
15,AFVSVYSKNNPNLLFSM [PRP8],2.61 ± 0.064
16,AGANDTSNNETNNGNDD [GRR1],2.87 ± 0.072
17,AGDWKYDRQLSSLFLDG [FAS2],2.34 ± 0.11
18,AGERKIPHDLNFLQESY [TAF14],2.71 ± 0.064
19,AGGPDMTTPQNISSSQQ [DSN1],2.83 ± 0.037
20,AGGQRIVDDYWESLAKK [SWP82],2.45 ± 0.13
21,AGIKTRKFVFNPPKPRK [CYT1],3.03 ± 0.06

# Same assay, conditions: ubr1∆
row,Sequence,protein stability index
1,AAAYSHELPRYGITHGL [RPL5],2.96 ± 0.074
2,AAGANVDNVWADVYAKA [RPP1B],2.96 ± 0.12
3,AAKIIYLAHEDNKEKDF [PRE10],3.01 ± 0.23
4,AALGEVASMELKPTNDM [SIR2],3.17 ± 0.13
5,AALIASKVYYNLGEYES [RPN2],1.69 ± 0.051
6,AAPPSTNFEILNEMLNT [DIS3],3.04 ± 0.061
7,AAPSAADIKAVVESVGA [RPP2B],3.29 ± 0.084
8,AASAAGYDRHITIFSPE [SCL1],2.95 ± 0.051
9,ACSSSGRETILSNFNAD [SIR3],2.75 ± 0.042
10,ADAQIQRETYDSNESDD [YLR335W/NUP2],2.66 ± 0.21
11,ADCQAELTKTKSSLYSA [YIL149C/MLP2],2.23 ± 0.045
12,ADEDDEDAKYVINLKQI [RPT1],2.61 ± 0.085
13,ADESKMAKLNECPLDPG [RET1],2.08 ± 0.079
14,ADINKNFLSVITNKHQE [RPN2],1.71 ± 0.057
15,ADKKDDSESNSEPIDLI [ITC1],3.35 ± 0.081
16,ADNKEDVKKPFSFGTSQ [YLR335W/NUP2],3.13 ± 0.099
17,ADNSGARNLYIIAVKGS [RPL23A],1.53 ± 0.057
18,ADNTKDKEKEENNDDAL [MED4],3.16 ± 0.082
19,ADVFRRCLVAVIQQDKY [SRP72],2.74 ± 0.18
20,ADVSIKSILQEIRRSLS [POP5],1.32 ± 0.06
21,ADVTHFVKPGTALDAEG [DIS3],3.08 ± 0.081

row,Sequence,protein stability index
1,AEDVALNEQVKKFFLNN [NAS6],2.04 ± 0.068
2,AEEAAAEEEEESDDDMG [RPP0],3.27 ± 0.068
3,AEEFDFNVPVVSKQLGN [YAR002W/NUP60],1.14 ± 0.11
4,AEFKKENLADLDYQIGN [LIN1],3.26 ± 0.071
5,AEKKVVRLTSRQRGRIA [RPL17A],1.14 ± 0.093
6,AELDDCRGVSENVILGQ [RPO21],3.56 ± 0.2
7,AELKLAGEFGLKNKKEI [RPS9A],3.21 ± 0.12
8,AETDYVDPKRLAMVIIK [DSN1],3.53 ± 0.06
9,AETQGSKVVIDSIIDNI [IRR1],2.99 ± 0.039
10,AFGVSVAFLDNDLGKFI [RPN7],3.28 ± 0.057
11,AFHTAVLRLNAIPLLKV [NUT1],1.99 ± 0.05
12,AFNQVEIRPEMLGHYLG [RPS15],3.19 ± 0.15
13,AFQLADGIHYILNHIGQ [PRP8],2.65 ± 0.14
14,AFTCFCIKKIMENNEPA [SRB8],2.15 ± 0.079
15,AFVSVYSKNNPNLLFSM [PRP8],2.71 ± 0.038
16,AGANDTSNNETNNGNDD [GRR1],2.89 ± 0.059
17,AGDWKYDRQLSSLFLDG [FAS2],2.23 ± 0.056
18,AGERKIPHDLNFLQESY [TAF14],2.62 ± 0.071
19,AGGPDMTTPQNISSSQQ [DSN1],2.93 ± 0.04
20,AGGQRIVDDYWESLAKK [SWP82],2.39 ± 0.15
21,AGIKTRKFVFNPPKPRK [CYT1],3.07 ± 0.063
